Experimental data reported in FireProtDB (doi:10.1021/bi00200a042).

conditions: Saccharomyces cerevisiae (strain ATCC 204508 / S288c); pH 7; 25 °C; GdnHCl; Fluorescence; Potassium phosphate 0.1 M; reversible: yes; structure 1YCC

Sequence of Cytochrome c isoform 1 N58I|C108A, P00044 N58I C108A (P00044 whole entry N58I/C108A, canonical isoform): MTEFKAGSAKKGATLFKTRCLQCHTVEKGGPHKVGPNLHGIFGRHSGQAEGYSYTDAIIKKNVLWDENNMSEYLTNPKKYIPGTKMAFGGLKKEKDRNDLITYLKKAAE
Sequence of Cytochrome c isoform 1 R44A|N58I|F88S|C108A, P00044 R44A N58I F88S C108A (P00044 whole entry R44A/N58I/F88S/C108A, canonical isoform): as the sequence (P00044 whole entry N58I/C108A, canonical isoform) above, with R44A, F88S counted along it
Sequence of Cytochrome c isoform 1 N58I|F88S|C108A, P00044 N58I F88S C108A (P00044 whole entry N58I/F88S/C108A, canonical isoform): as the sequence (P00044 whole entry N58I/C108A, canonical isoform) above, with F88S counted along it
Sequence of Cytochrome c isoform 1 C108A, P00044 (P00044 whole entry C108A, canonical isoform): as the sequence (P00044 whole entry N58I/C108A, canonical isoform) above, with I58N counted along it
Sequence of Cytochrome c isoform 1 F88S|C108A, P00044 F88S C108A (P00044 whole entry F88S/C108A, canonical isoform): as the sequence (P00044 whole entry N58I/C108A, canonical isoform) above, with I58N, F88S counted along it
Sequence of Cytochrome c isoform 1 R44A|C108A, P00044 R44A C108A (P00044 whole entry R44A/C108A, canonical isoform): as the sequence (P00044 whole entry N58I/C108A, canonical isoform) above, with R44A, I58N counted along it
Sequence of Cytochrome c isoform 1 R44A|N58I|C108A, P00044 R44A N58I C108A (P00044 whole entry R44A/N58I/C108A, canonical isoform): as the sequence (P00044 whole entry N58I/C108A, canonical isoform) above, with R44A counted along it

Question: With Cytochrome c isoform 1 C108A, P00044 as the substance, how does the denaturant m value read?
Answer: 3.9 kcal/mol/M

Question: What about the “denaturant midpoint (higher = more stable)” value (from here on “denaturant midpoint”) of the same substance?
Answer: 1.3 M

Question: What about the unfolding free energy of the same substance?
Answer: 5 kcal/mol

Question: Which results are given for “Cytochrome c isoform 1 F88S|C108A, P00044 F88S C108A”?
Answer: denaturant m value: 3.8 kcal/mol/M; denaturant midpoint (higher = more stable): 0.9 M; unfolding free energy: 3.5 kcal/mol

Question: With “Cytochrome c isoform 1 N58I|C108A, P00044 N58I C108A” as the substance, how does the denaturant m value read?
Answer: 4.2 kcal/mol/M

Question: What about the “denaturant midpoint” value of the same substance?
Answer: 2.1 M

Question: What about the unfolding free energy of the same substance?
Answer: 9 kcal/mol

Question: With “Cytochrome c isoform 1 N58I|F88S|C108A, P00044 N58I F88S C108A” as the substance, how does the denaturant m value read?
Answer: 3.2 kcal/mol/M

Question: What about the “denaturant midpoint” value of the same substance?
Answer: 1.7 M

Question: What about the unfolding free energy of the same substance?
Answer: 5.5 kcal/mol

Question: What does the source list for “Cytochrome c isoform 1 R44A|C108A, P00044 R44A C108A”?
Answer: denaturant m value: 3 kcal/mol/M; denaturant midpoint (higher = more stable): 1.4 M; unfolding free energy: 3.8 kcal/mol

Question: Which results are given for “Cytochrome c isoform 1 R44A|N58I|C108A, P00044 R44A N58I C108A”?
Answer: denaturant m value: 3.8 kcal/mol/M; denaturant midpoint (higher = more stable): 2.1 M; unfolding free energy: 8.2 kcal/mol

Question: For “Cytochrome c isoform 1 R44A|N58I|F88S|C108A, P00044 R44A N58I F88S C108A”, which denaturant m value is on record?
Answer: 3.6 kcal/mol/M

Question: And the “denaturant midpoint” value?
Answer: 1.7 M

Question: What about the unfolding free energy of the same substance?
Answer: 6.2 kcal/mol
